What was measured:
G9a and GLP = biological target: T1, G9a and GLP (Homo sapiens, UniProt Q96KQ7+Q9H9B1); assay: Triple SILAC pull-down after UNC0638 treatment of 293T cells, DMSO/UNC0638 ratio of protein captured by 3×MBT; format: cell-based; set-up: cells were treated for 24 hours with UNC0638 at 2.5 μM or DMSO vehicle control; endogenous in cells; host or cells: HEK 293T; settings: for Relative to UNC0638 UNC Heavy / Relative to UNC0638 UNC Light: SILAC ratio DMSO/UNC0638 of protein pulled down with 3xMBT; for Relative to UNC0638 UNC Heavy: UNC0638 in heavy SILAC media; for Relative to UNC0638 UNC Light: UNC0638 in light SILAC media; for Relative to UNC0638 Average: average of UNC Light and UNC Heavy experiments;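 for all read-outs here: mass spectrometry (Q-Exactive) SILAC quantitation, DMSO/UNC0638 ratio computed after subtracting 3×MBTD355N mutant pull-down background, only proteins with at least twofold 3×MBT over mutant signal considered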
T1 sequence (Q96KQ7 2-1210 limits assumed): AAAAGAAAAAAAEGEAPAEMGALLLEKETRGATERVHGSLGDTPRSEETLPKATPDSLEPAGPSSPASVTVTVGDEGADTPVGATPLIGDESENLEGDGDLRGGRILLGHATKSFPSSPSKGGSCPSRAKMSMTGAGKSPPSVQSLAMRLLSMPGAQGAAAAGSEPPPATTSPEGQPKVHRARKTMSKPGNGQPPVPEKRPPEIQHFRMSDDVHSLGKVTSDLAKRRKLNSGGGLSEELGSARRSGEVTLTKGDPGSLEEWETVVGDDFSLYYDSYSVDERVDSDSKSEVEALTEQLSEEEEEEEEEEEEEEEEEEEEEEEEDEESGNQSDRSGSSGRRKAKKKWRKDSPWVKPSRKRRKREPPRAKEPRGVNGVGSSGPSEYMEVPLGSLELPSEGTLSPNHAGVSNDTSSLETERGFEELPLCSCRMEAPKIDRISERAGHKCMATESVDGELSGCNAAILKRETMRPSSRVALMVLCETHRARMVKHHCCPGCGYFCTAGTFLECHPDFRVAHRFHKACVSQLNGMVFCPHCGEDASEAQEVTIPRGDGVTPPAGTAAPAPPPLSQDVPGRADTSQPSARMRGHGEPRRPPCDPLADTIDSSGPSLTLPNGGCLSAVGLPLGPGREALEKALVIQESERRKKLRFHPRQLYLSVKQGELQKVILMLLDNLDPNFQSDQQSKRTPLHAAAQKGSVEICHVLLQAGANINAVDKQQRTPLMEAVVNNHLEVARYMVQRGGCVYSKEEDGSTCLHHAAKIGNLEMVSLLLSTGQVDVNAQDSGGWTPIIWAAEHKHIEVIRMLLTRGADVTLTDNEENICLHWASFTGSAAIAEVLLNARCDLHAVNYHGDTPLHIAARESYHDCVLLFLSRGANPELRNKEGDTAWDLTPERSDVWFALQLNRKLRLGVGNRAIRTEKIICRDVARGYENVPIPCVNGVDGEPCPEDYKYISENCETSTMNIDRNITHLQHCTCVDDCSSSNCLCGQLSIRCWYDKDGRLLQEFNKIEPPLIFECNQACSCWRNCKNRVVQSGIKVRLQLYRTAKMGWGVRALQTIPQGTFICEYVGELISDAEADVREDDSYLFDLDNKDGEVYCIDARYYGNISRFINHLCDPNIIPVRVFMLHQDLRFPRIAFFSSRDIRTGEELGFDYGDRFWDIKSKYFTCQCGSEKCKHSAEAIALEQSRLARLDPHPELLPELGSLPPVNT
T1 sequence (Q9H9B1 2-1298 limits assumed): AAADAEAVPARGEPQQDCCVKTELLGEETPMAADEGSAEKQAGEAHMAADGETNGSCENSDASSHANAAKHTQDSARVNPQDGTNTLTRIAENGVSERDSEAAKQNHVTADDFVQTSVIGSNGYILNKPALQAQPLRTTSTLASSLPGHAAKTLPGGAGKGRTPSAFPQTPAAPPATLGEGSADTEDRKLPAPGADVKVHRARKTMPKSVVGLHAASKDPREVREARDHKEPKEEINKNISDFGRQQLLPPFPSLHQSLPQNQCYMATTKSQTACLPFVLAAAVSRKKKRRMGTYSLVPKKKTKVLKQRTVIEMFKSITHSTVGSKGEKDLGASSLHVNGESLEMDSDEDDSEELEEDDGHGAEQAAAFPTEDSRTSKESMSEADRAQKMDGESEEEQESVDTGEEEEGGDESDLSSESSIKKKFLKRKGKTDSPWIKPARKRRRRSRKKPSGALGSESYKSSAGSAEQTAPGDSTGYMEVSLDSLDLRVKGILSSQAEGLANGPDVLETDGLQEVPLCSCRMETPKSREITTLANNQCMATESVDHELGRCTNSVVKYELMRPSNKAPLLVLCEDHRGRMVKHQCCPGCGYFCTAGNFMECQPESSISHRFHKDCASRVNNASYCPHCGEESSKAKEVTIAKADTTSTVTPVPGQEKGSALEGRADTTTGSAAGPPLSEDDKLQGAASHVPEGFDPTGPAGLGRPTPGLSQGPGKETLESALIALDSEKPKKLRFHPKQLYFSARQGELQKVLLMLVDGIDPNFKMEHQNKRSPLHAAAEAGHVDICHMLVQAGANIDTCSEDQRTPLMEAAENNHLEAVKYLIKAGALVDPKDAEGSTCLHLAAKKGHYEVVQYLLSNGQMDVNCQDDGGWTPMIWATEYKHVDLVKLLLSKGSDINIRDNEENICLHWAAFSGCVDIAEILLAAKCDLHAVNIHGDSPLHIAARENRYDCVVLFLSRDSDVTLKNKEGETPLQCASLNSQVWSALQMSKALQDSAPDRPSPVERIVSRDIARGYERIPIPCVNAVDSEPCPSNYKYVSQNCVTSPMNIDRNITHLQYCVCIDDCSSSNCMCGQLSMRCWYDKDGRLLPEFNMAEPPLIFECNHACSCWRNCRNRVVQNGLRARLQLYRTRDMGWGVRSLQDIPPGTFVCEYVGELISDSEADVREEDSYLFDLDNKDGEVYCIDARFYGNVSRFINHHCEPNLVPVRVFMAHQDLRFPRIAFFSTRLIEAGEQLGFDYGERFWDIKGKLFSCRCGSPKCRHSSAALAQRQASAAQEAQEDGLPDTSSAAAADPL

3×MBT domain of L3MBTL1 = assay: Triple SILAC pull-down, 3xMBT/3xMBTD355N ratio (cytoplasmic, nuclear and chromatin fractions of 293T cells); format: binding, human; settings: SILAC ratio, pull-down 3xMBT vs 3xMBTD355N; for 3xMBT/D355N UNC Heavy: experiment with UNC0638 in heavy SILAC media; for 3xMBT/D355N UNC Light: experiment with UNC0638 in light SILAC media;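 for all read-outs here: proteins quantified with MaxQuant, requiring at least two unique peptides and quantification in both label directions, normalized to the mean of proteins from a digested loading control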

B1: U2AF2 (protein, UniProt P26368 2-475, looked up)
Splicing factor U2AF 65 kDa …: SDFDEFERQLNENKQERDKENRHRKRSHSRSRSRDRKRRSRSRDRRNRDQRSASRDRRRRSKPLTRGAKEEHGGLIRSPRHEKKKKVRKYWDVPPPGFEHITPMQYKAMQAAGQIPATALLPTMTPDGLAVTPTPVPVVGSQMTRQARRLYVGNIPFGITEEAMMDFFNAQMRLGGLTQAPGNPVLAVQINQDKNFAFLEFRSVDETTQAMAFDGIIFQGQSLKIRRPHDYQPLPGMSENPSVYVPGVVSTVVPDSAHKLFIGGLPNYLNDDQVKELLTSFGPLKAFNLVKDSATGLSKGYAFCEYVDINVTDQAIAGLNGMQLGDKKLLVQRASVGAKNATLVSPPSTINQTPVTLQVPGLMSSQVQMGGHPTEVLCLMNMVLPEELLDDEEYEEIVEDVRDECSKYGLVKSIEIPRPVDGVEVPGCGKIFVEFTSVFDCQKAMQGLTGRKFANRVVVTKYCDPDSYHRRDFW
Relative to UNC0638 UNC Heavy (G9a and GLP): 0.14 log base 2
Relative to UNC0638 UNC Light (G9a and GLP): 0.20 log base 2
Relative to UNC0638 Average (G9a and GLP): 0.17 log base 2
3xMBT/D355N UNC Heavy (3×MBT domain of L3MBTL1): 2.86 log base 2
3xMBT/D355N UNC Light (3×MBT domain of L3MBTL1): 2.60 log base 2

B2: PALLD (protein, UniProt Q8WX93 1-1383, looked up)
Palladin: MSGTSSHESFYDSLSDMQEESKNTDFFPGLSAFLSQEEINKSLDLARRAIADSETEDFDSEKEISQIFSTSPASLCEHPSHKETKLGEHASRRPQDNRSTPVQPLAEKQTKSISSPVSKRKPAMSPLLTRPSYIRSLRKAEKRGAKTPSTNVKPKTPHQRKGGPQSQLCDKAANLIEELTSIFKAAKPRNRSPNGESSSPDSGYLSPKNQPSALLSASASQSPMEDQGEMEREVKSPGARHCYQDNQDLAVPHNRKSHPQPHSALHFPAAPRFIQKLRSQEVAEGSRVYLECRVTGNPTPRVRWFCEGKELHNTPDIQIHCEGGDLHTLIIAEAFEDDTGRYTCLATNPSGSDTTSAEVFIEGASSTDSDSESLAFKSRAGAMPQAQKKTTSVSLTIGSSSPKTGVTTAVIQPLSVPVQQVHSPTSYLCRPDGTTTAYFPPVFTKELQNTAVAEGQVVVLECRVRGAPPLQVQWFRQGSEIQDSPDFRILQKKPRSTAEPEEICTLVIAETFPEDAGIFTCSARNDYGSATSTAQLVVTSANTENCSYESMGESNNDHFQHFPPPPPILETSSLELASKKPSEIQQVNNPELGLSRAALQMQFNAAERETNGVHPSRGVNGLINGKANSNKSLPTPAVLLSPTKEPPPLLAKPKLDPLKLQQLQNQIRLEQEAGARQPPPAPRSAPPSPPFPPPPAFPELAACTPPASPEPMSALASRSAPAMQSSGSFNYARPKQFIAAQNLGPASGHGTPASSPSSSSLPSPMSPTPRQFGRAPVPPFAQPFGAEPEAPWGSSSPSPPPPPPPVFSPTAAFPVPDVFPLPPPPPPLPSPGQASHCSSPATRFGHSQTPAAFLSALLPSQPPPAAVNALGLPKGVTPAGFPKKASRTARIASDEEIQGTKDAVIQDLERKLRFKEDLLNNGQPRLTYEERMARRLLGADSATVFNIQEPEEETANQEYKVSSCEQRLISEIEYRLERSPVDESGDEVQYGDVPVENGMAPFFEMKLKHYKIFEGMPVTFTCRVAGNPKPKIYWFKDGKQISPKSDHYTIQRDLDGTCSLHTTASTLDDDGNYTIMAANPQGRISCTGRLMVQAVNQRGRSPRSPSGHPHVRRPRSRSRDSGDENEPIQERFFRPHFLQAPGDLTVQEGKLCRMDCKVSGLPTPDLSWQLDGKPVRPDSAHKMLVRENGVHSLIIEPVTSRDAGIYTCIATNRAGQNSFSLELVVAAKEAHKPPVFIEKLQNTGVADGYPVRLECRVLGVPPPQIFWKKENESLTHSTDRVSMHQDNHGYICLLIQGATKEDAGWYTVSAKNEAGIVSCTARLDVYTQWHQQSQSTKPKKVRPSASRYAALSDQGLDIKAAFQPEANPSHLTLNTALVESEDL
Relative to UNC0638 UNC Heavy (G9a and GLP): 0.26 log base 2
Relative to UNC0638 UNC Light (G9a and GLP): 0.09 log base 2
Relative to UNC0638 Average (G9a and GLP): 0.17 log base 2
3xMBT/D355N UNC Heavy (3×MBT domain of L3MBTL1): 2.50 log base 2
3xMBT/D355N UNC Light (3×MBT domain of L3MBTL1): 2.31 log base 2

B3: RBMX (protein, UniProt P38159 1-391, looked up)
RNA-binding motif protein, X …: MVEADRPGKLFIGGLNTETNEKALEAVFGKYGRIVEVLLMKDRETNKSRGFAFVTFESPADAKDAARDMNGKSLDGKAIKVEQATKPSFESGRRGPPPPPRSRGPPRGLRGGRGGSGGTRGPPSRGGHMDDGGYSMNFNMSSSRGPLPVKRGPPPRSGGPPPKRSAPSGPVRSSSGMGGRAPVSRGRDSYGGPPRREPLPSRRDVYLSPRDDGYSTKDSYSSRDYPSSRDTRDYAPPPRDYTYRDYGHSSSRDDYPSRGYSDRDGYGRDRDYSDHPSGGSYRDSYESYGNSRSAPPTRGPPPSYGGSSRYDDYSSSRDGYGGSRDSYSSSRSDLYSSGRDRVGRQERGLPPSMERGYPPPRDSYSSSSRGAPRGGGRGGSRSDRGGGRSRY
Relative to UNC0638 UNC Heavy (G9a and GLP): 0.11 log base 2
Relative to UNC0638 UNC Light (G9a and GLP): 0.24 log base 2
Relative to UNC0638 Average (G9a and GLP): 0.17 log base 2
3xMBT/D355N UNC Heavy (3×MBT domain of L3MBTL1): 3.98 log base 2
3xMBT/D355N UNC Light (3×MBT domain of L3MBTL1): 4.49 log base 2

— patent US20140274782A1, “AFFINITY REAGENTS AND METHODS FOR DETECTION, PURIFICATION, AND PROTEOMIC ANALYSIS OF METHYLATED PROTEINS” (The Board of Trustees of the Leland Stanford Junior …, priority 2013, published 2014)
